Test results reported in patent US12134610B2, “Somatostatin subtype-2 receptor (SST2R) targeted therapeutics and uses thereof” (priority 2022, dated 2024).
Where two headings read alike, the source gives them in different places.

Columns and labels:
[1] = molecular target: T1, human somatostatin receptor subtype 2 (Homo sapiens, UniProt P30874); assay: Functional cAMP assay for SSTR2 agonists (HTRF) in CHO-K1 cells; format: cell-based; conditions: CHO-K1 cells stably expressing human SST2, 20 min; read-out: hSST2 cAMP Avg EC50
T1 construct: expressed in transfected cells
Method in brief: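 CHO-K1 cells stably expressing receptor, plated 4 days before assay, treated 20 min at 37° C. with compound (typically 0-10,000 nM final) plus IBMX and 1.6 μM NKH477 to raise cAMP. HTRF read, 665/620 nm ratio; cAMP from standard curve, EC50 fitted.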

SST2 = molecular target: T2, SST2 (Homo sapiens, UniProt P30874); assay: PathHunter CHO-K1 SST2 internalization assay; format: cell-based; conditions: PathHunter CHO-K1 SST2, 90 min; read-out: Internalization EC50
T2 construct: host or cells: PathHunter CHO-K1 SST2 cells
Method in brief: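 PathHunter CHO-K1 SST2 cells, seeded and grown 48 h, were exposed to 11-point 1:3 dilutions of SMDC (top final 10 uM) for 90 min at 37 C, 5% CO2. Beta-Glo luminescence was read after 60 min at room temperature. Background-corrected duplicate means were fitted by four-parameter nonlinear regression to give IC50.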

[2] = tested on: NCI-H524 (ATCC) human small cell lung cancer cells; format: cell-based
Method in brief: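 NCI-H524 cells (5,000/well) were exposed 24 h after plating to SMDC for 2 h, 11-point two-fold series from 1 uM. After washout they grew a further 70 h. Proliferation was read by CellTiter-Glo luminescence, % inhibition taken vs untreated control, and IC50 fitted by four-parameter nonlinear regression.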

[3] = H524 tumor biodistribution model: tumor and plasma levels of SMDC and MMAE by LC/MS-MS; format: in vivo, female Athymic nude mice; conditions: H524 tumor bearing nude mice
Protocol: In this example, 5 million H524 (Small Cell Lung Cancer) cells in 1:1 Matrigel: cold Media (RPMI1640) were injected into the subcutaneous (SQ) flank of female Athymic nude mice. Tumor volumes and body weights were measured twice a week. The tumors were allowed to grow until they reached 250-500 mm^3 in size before animals were randomized into groups (n=3/time point). Animals were injected intravenously with a SMDC of the present invention at a single dose of 500 nmol/kg. […] BLQ: Below Limit of Quantitation.

[4] = MMAE level 1 h after 500 nmol/kg IV of the conjugate
[5] = MMAE level 4 h after 500 nmol/kg IV of the conjugate
[6] = MMAE level 24 h after 500 nmol/kg IV of the conjugate
[7] = MMAE level 72 h after 500 nmol/kg IV of the conjugate
[8] = female, Athymic nude, mouse, plasma, 4 h after 500 nmol/kg IV, read-out: Conjugate Plasma
[9] = female, Athymic nude, mouse, plasma, 24 h after 500 nmol/kg IV, read-out: Conjugate Plasma
[10] = female, Athymic nude, mouse, 4 h after 500 nmol/kg IV, read-out: Conjugate Tumor
[11] = MMAE level 168 h after 500 nmol/kg IV of the conjugate

T1 sequence (P30874 whole entry): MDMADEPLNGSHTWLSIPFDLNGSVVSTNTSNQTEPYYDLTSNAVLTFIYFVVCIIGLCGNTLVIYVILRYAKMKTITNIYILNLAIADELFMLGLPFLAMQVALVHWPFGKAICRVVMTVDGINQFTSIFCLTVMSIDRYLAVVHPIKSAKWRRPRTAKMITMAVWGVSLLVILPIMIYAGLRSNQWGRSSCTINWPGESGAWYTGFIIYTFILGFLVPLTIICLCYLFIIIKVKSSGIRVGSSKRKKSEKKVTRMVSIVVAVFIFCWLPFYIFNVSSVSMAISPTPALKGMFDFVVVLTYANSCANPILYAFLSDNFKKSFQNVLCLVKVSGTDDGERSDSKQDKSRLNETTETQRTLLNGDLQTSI
T2 sequence (P30874 whole entry): as above

Row | Compound | EC50 [1] | EC50 (SST2) | EC50 ([2]; 2 h) | Conjugate Tumor (nM) ([3]; 72 h after 500 nmol/kg IV) | MMAE Plasma [3, 5] | MMAE Tumor [3, 5] | MMAE Tumor [3, 6] | MMAE Plasma (nM) [3, 7] | MMAE Tumor [3, 7] | other results
1 | CC[C@H](C)[C@@H]([C@@H](CC(=O)N1CCC[C@H]1[C@H](OC)[C@@H](C)C(=O)N[C@H](C)[C@@H](O)c1ccccc1)OC)N(C)C(=O)[C@@H](NC(=O)[C@H](C(C)C)N(C)C(=O)OCc1ccc(NC(=O)[C@H](CCCNC(N)=O)NC(=O)[C@@H](NC(=O)[C@H](CCC(=O)O)NC(=O)CCOCCC(=O)NCCNc2ncc(-c3cc(C)cc(F)c3)c(N3CCC(N)CC3)c2-c2nc3ccc(Cl)cc3[nH]2)C(C)C)cc1C(=O)NCCN)C(C)C [Compound 49] | 0.14 nM | 5.5 nM | 17.3 nM | BLQ | 1.36 nM | 65.7 nM | 83.5 nM | BLQ | 62.7 nM | Conjugate Tumor (nM) ([3]; 24 h after 500 nmol/kg IV): BLQ; Conjugate Plasma (nM) ([3]; 72 h after 500 nmol/kg IV): BLQ; MMAE Plasma [3, 4]: 9.2 nM; MMAE Tumor [3, 4]: 38 nM; MMAE Plasma (nM) [3, 6]: BLQ; level at time molar at 1 h ([3]; female, Athymic nude, mouse, plasma, 1 h after 500 nmol/kg IV, read-out: Conjugate Plasma): 354 nM; level at time molar at 4 h [3, 8]: 41.6 nM; level at time molar at 24 h [3, 9]: 0.783 nM; level at time molar at 1 h ([3]; female, Athymic nude, mouse, 1 h after 500 nmol/kg IV, read-out: Conjugate Tumor): 88.1 nM; level at time molar at 4 h [3, 10]: 46.5 nM
2 | CC[C@H](C)[C@@H]([C@@H](CC(=O)N1CCC[C@H]1[C@H](OC)[C@@H](C)C(=O)N[C@H](C)[C@@H](O)c1ccccc1)OC)N(C)C(=O)[C@@H](NC(=O)[C@H](C(C)C)N(C)C(=O)OCc1ccc(NC(=O)[C@H](CCCNC(N)=O)NC(=O)[C@@H](NC(=O)CCOCCC(=O)NCCNc2ncc(-c3cc(C)cc(F)c3)c(N3CCC(N)CC3)c2-c2nc3ccc(Cl)cc3[nH]2)C(C)C)c(O[C@@H]2O[C@H](C(=O)O)[C@@H](O)[C@H](O)[C@H]2O)c1)C(C)C [Compound 61] | 0.11 nM | 12.7 nM | 33.2 nM | BLQ | 0.754 nM | 75.0 nM | 320 nM | BLQ | 267 nM | Conjugate Plasma (nM) ([3]; 72 h after 500 nmol/kg IV): BLQ; Conjugate Plasma (nM) ([3]; 168 h after 500 nmol/kg IV): BLQ; Conjugate Tumor (nM) ([3]; 168 h after 500 nmol/kg IV): BLQ; MMAE Plasma (nM) [3, 11]: BLQ; MMAE Tumor [3, 11]: 97.8 nM; level at time molar at 4 h [3, 8]: 1100 nM; level at time molar at 24 h [3, 9]: 56.5 nM; level at time molar at 4 h [3, 10]: 181 nM; level at time molar at 24 h ([3]; female, Athymic nude, mouse, 24 h after 500 nmol/kg IV, read-out: Conjugate Tumor): 37 nM
3 | CC[C@H](C)[C@@H]([C@@H](CC(=O)N1CCC[C@H]1[C@H](OC)[C@@H](C)C(=O)N[C@H](C)[C@@H](O)c1ccccc1)OC)N(C)C(=O)[C@@H](NC(=O)[C@H](C(C)C)N(C)C(=O)OCc1ccc(NC(=O)[C@H](C)NC(=O)[C@@H](NC(=O)CCOCCC(=O)NCCNc2ncc(-c3cc(C)cc(F)c3)c(N3CCC(N)CC3)c2-c2nc3ccc(Cl)cc3[nH]2)C(C)C)c(O[C@@H]2O[C@H](C(=O)O)[C@@H](O)[C@H](O)[C@H]2O)c1)C(C)C [Compound 68] | – | – | – | BLQ | 1.94 nM | 197 nM | 299 nM | BLQ | 231 nM | EC50 ([2]; 2 h treatment, washout, additional 70 h, read-out: H524 EC50): 11.2 nM; level at time molar at 24 h ([3]; 1 h after 500 nmol/kg IV, read-out: Conjugate Plasma): 1388 nM; level at time molar at 24 h ([3]; 1 h after 500 nmol/kg IV, read-out: Conjugate Tumor): 212 nM; level at time molar at 24 h ([3]; 4 h after 500 nmol/kg IV, read-out: Conjugate Plasma): 446 nM; level at time molar at 24 h ([3]; 4 h after 500 nmol/kg IV, read-out: Conjugate Tumor): 91.3 nM; level at time molar at 24 h ([3]; 24 h after 500 nmol/kg IV, read-out: Conjugate Plasma): 36.9 nM; level at time molar at 24 h ([3]; 24 h after 500 nmol/kg IV, read-out: Conjugate Tumor): 15.5 nM; level at time molar at 24 h ([3]; 72 h after 500 nmol/kg IV, read-out: Conjugate Plasma): 0.68 nM; MMAE Plasma [3, 4]: 8.82 nM; MMAE Tumor [3, 4]: 17.5 nM; MMAE Plasma [3, 6]: 0.416 nM
4 | CC[C@H](C)[C@@H]([C@@H](CC(=O)N1CCC[C@H]1[C@H](OC)[C@@H](C)C(=O)N[C@H](C)[C@@H](O)c1ccccc1)OC)N(C)C(=O)[C@@H](NC(=O)[C@H](C(C)C)N(C)C(=O)OCc1ccc(NC(=O)[C@H](C)NC(=O)[C@@H](NC(=O)[C@H](CCC(=O)O)NC(=O)CCOCCOCCOCCOCCC(=O)NCCNc2ncc(-c3cc(C)cc(F)c3)c(N3CCC(N)CC3)c2-c2nc3ccc(Cl)cc3[nH]2)C(C)C)c(O[C@@H]2O[C@H](C(=O)O)[C@@H](O)[C@H](O)[C@H]2O)c1)C(C)C [Compound 152] | 0.2 nM | 5.8 nM | 91 nM | – | – | – | – | – | – | –
5 | CC[C@H](C)[C@@H]([C@@H](CC(=O)N1CCC[C@H]1[C@H](OC)[C@@H](C)C(=O)N[C@H](C)[C@@H](O)c1ccccc1)OC)N(C)C(=O)[C@@H](NC(=O)[C@H](C(C)C)N(C)C(=O)OCc1ccc(NC(=O)[C@H](C)NC(=O)[C@@H](NC(=O)CCOCCC(=O)N(C)CCNc2ncc(-c3cc(C)cc(F)c3)c(N3CCC(N)CC3)c2-c2nc3ccc(Cl)cc3[nH]2)C(C)C)c(O[C@@H]2O[C@H](C(=O)O)[C@@H](O)[C@H](O)[C@H]2O)c1)C(C)C [Compound 153] | 0.51 nM | 14 nM | 98 nM | – | – | – | – | – | – | –
6 | CC[C@H](C)[C@@H]([C@@H](CC(=O)N1CCC[C@H]1[C@H](OC)[C@@H](C)C(=O)N[C@H](C)[C@@H](O)c1ccccc1)OC)N(C)C(=O)[C@H](C)NC(=O)[C@H](C(C)C)N(C)C(=O)OCc1ccc(NC(=O)[C@@H](NC(=O)[C@@H](NC(=O)CCN(C)CCC(=O)NCCNc2ncc(-c3cc(C)cc(F)c3)c(N3CCC(N)CC3)c2-c2nc3ccc(Cl)cc3[nH]2)C(C)C)C(C)C)c(O[C@@H]2O[C@H](C(=O)O)[C@@H](O)[C@H](O)[C@H]2O)c1 [Compound 154] | 0.16 nM | 25 nM | 29 nM | – | – | – | – | – | – | –
7 | CC[C@H](C)[C@@H]([C@@H](CC(=O)N1CCC[C@H]1[C@H](OC)[C@@H](C)C(=O)N[C@H](C)[C@@H](O)c1ccccc1)OC)N(C)C(=O)[C@@H](NC(=O)[C@H](C(C)C)N(C)C(=O)OCc1ccc(NC(=O)[C@H](C)NC(=O)[C@@H](NC(=O)CCNCCC(=O)NCCNc2ncc(-c3cc(C)cc(F)c3)c(N3CCC(N)CC3)c2-c2nc3ccc(Cl)cc3[nH]2)C(C)C)c(O[C@@H]2O[C@H](C(=O)O)[C@@H](O)[C@H](O)[C@H]2O)c1)C(C)C [Compound 155] | 0.24 nM | 29 nM | 71 nM | – | – | – | – | – | – | –
8 | CC[C@H](C)[C@@H]([C@@H](CC(=O)N1CCC[C@H]1[C@H](OC)[C@@H](C)C(=O)N[C@H](C)[C@@H](O)c1ccccc1)OC)N(C)C(=O)[C@@H](NC(=O)[C@H](C(C)C)N(C)C(=O)OCc1ccc(NC(=O)[C@H](C)NC(=O)[C@@H](NC(=O)CCOCCNCCC(=O)NCCNc2ncc(-c3cc(C)cc(F)c3)c(N3CCC(N)CC3)c2-c2nc3ccc(Cl)cc3[nH]2)C(C)C)c(O[C@@H]2O[C@H](C(=O)O)[C@@H](O)[C@H](O)[C@H]2O)c1)C(C)C [Compound 156] | 0.24 nM | 25 nM | 76 nM | – | – | – | – | – | – | –
9 | CC[C@H](C)[C@@H]([C@@H](CC(=O)N1CCC[C@H]1[C@H](OC)[C@@H](C)C(=O)N[C@H](C)[C@@H](O)c1ccccc1)OC)N(C)C(=O)[C@@H](NC(=O)[C@H](C(C)C)N(C)C(=O)OCc1ccc(NC(=O)[C@H](C)NC(=O)[C@@H](NC(=O)[C@H](CS(=O)(=O)O)NC(=O)CCOCCOCCOCCOCCC(=O)NCCNc2ncc(-c3cc(C)cc(F)c3)c(N3CCC(N)CC3)c2-c2nc3ccc(Cl)cc3[nH]2)C(C)C)cc1C(=O)NCCN)C(C)C [Compound 158] | 0.24 nM | 12 nM | 3 nM | – | – | – | – | – | – | –
10 | CC[C@H](C)[C@@H]([C@@H](CC(=O)N1CCC[C@H]1[C@H](OC)[C@@H](C)C(=O)N[C@H](C)[C@@H](O)c1ccccc1)OC)N(C)C(=O)[C@@H](NC(=O)[C@H](C(C)C)N(C)C(=O)OCc1ccc(NC(=O)[C@H](CCCNC(N)=O)NC(=O)[C@@H](NC(=O)[C@H](CS(N)(=O)=O)NC(=O)CCOCCC(=O)NCCNc2ncc(-c3cc(C)cc(F)c3)c(N3CCC(N)CC3)c2-c2nc3ccc(Cl)cc3[nH]2)C(C)C)cc1C(=O)NCCN)C(C)C [Compound 159] | 0.3 nM | 10 nM | 2.6 nM | – | – | – | – | – | – | –
